In patent US7919584B1, “Methods and compositions for diagnosis and treatment of asthma” (Arbor Vita Corporation, priority 2005, dated 2011) one finds EC50 data, which are given here for two molecules.

Ends that are not written are not given here. Peptide text beside a SMILES is read from it. * marks the point of attachment. Biotin = O=C1N[C@H]2[C@H](CS[C@H]2CCCCC(=O)*)N1

One assay deals with T1, GORASP1 d1 (Homo sapiens, UniProt Q9BQQ3).
T1 construct: made in house; host or cells: E. coli (DH5α, BL21 or JM109)
The assay can be described thus: modified G assay titration, peptide vs constant GST-PDZ domain fusion. The format is binding. The method, then: (§1) A Nunc Maxisorp 96 well Immunoplate (Nunc cat#62409-002) was coated with 100 μl of 5 μg/ml goat anti-GST polyclonal antibody (Amersham Pharmacia cat#27-457-01) and incubated overnight at 4° C. The plate was blocked by addition of 200 μl Assay Buffer (2% bovine serum albumin in PBS, pH 7.4) for 1 to 2 hours at room temperature, then washed three times in Assay Buffer.
(§2) 50 μl per well of GST-PDZ fusion proteins (5 μg/ml in Assay Buffer), or, as a negative control, GST polypeptide alone, was added to the plate, and incubated for 1 to 2 hours at 4° C.
(§3) Biotinylated peptides were prepared in Assay Buffer, in half the volume required at 40 μM. HRP-Streptavidin (Zymed cat#43-4323) was diluted 1:1000 in another half volume of Assay Buffer, then mixed with the peptides. The peptide-HRP mixtures were incubated for 20 minutes at room temperature. […]
(§4) The plate was then washed five times with room temperature PBS, and developed by addition of 100 μl/well of HRP substrate solution (3,3′,5,5′, tetramethylbensidine (TMB) (Dako cat#S1600)) for a maximum of 30 minutes in the dark at room temperature. The reaction of HRP and its substrate was terminated by addition of 100 μl of 0.18 M H2SO4 (Sigma cat#S1526), and the absorbance of each well of the plate was read at 450 nm.

The next assay concerns the target T2, KIAA1284 (Homo sapiens, UniProt Q9ULD6).
T2 construct: made in house; host or cells: E. coli (DH5α, BL21 or JM109)
T2 sequence (Q9ULD6 with tags, fused parts or gaps): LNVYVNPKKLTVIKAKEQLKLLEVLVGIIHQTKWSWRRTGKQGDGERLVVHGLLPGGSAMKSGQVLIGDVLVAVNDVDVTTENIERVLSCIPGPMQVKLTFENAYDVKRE
Described as above. It counts as binding. As to the method:
as §1, §2, §3, §4

Assay [1] addresses T3, GST-PSD95 d2 (PDZ domain 2) fusion protein (human, UniProt P78352 147-253).
T3 construct: domain: d2; not shown: glutathione-S transferase (GST) encoded by the pGEX-3X vector (Pharmacia); short vector-encoded linker
The assay can be described thus: modified G assay, peptide titrated against a constant amount of immobilized GST-PDZ fusion; Hill fit.

The target of assay [2] is T4, GST-GORASP1 (PDZ #1) fusion protein (human, UniProt P08515 1-218 = GST).
T4 construct: also called GORASP1 d1; GRASP1; not shown: short vector-encoded linker (Gly-Ile, Gly-Ile-Pro-Gly-Asn or Gly-Ile-Pro, by cloning site); which one in this construct
The assay is described as above.

Assay [3] addresses T5, GST-TIP2 PDZ domain fusion protein (human, UniProt O14908 118-223).
T5 construct: domain: PDZ domain; not shown: glutathione-S transferase (GST) encoded by the pGEX-3X vector (Pharmacia); short vector-encoded linker
T5 sequence (looked up): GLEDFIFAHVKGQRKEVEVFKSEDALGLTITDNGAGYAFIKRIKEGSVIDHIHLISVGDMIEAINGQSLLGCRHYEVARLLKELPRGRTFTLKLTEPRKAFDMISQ
The description is as above.

Assay [4] deals with T6, GST-KIAA1284 PDZ domain fusion protein (human, UniProt P08515 1-218 = GST).
T6 construct: also called PDZK6; not shown: short vector-encoded linker
The assay is described as above.

T4 sequence (P08515 1-218, tags or fused parts left off): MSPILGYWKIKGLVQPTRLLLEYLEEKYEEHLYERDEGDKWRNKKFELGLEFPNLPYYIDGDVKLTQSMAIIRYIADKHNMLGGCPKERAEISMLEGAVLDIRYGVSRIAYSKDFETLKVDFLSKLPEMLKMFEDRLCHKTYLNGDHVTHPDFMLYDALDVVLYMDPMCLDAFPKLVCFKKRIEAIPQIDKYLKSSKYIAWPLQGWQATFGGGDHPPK
T6 sequence (P08515 1-218, tags or fused parts left off): as above
T1 sequence (Q9BQQ3 1-110): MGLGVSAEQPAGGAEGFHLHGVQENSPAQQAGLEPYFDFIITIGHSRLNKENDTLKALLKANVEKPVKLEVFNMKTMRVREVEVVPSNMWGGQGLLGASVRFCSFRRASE
T3 sequence (P78352 147-253): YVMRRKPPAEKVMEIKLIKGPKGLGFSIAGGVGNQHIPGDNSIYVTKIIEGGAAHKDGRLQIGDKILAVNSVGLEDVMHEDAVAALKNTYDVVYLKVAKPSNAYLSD

In general, EC50 refers to the midpoint of the concentration-response curve. Read a high EC50 as a need for much substance. For the molecule `CC[C@H](C)[C@H](NC(=O)[C@H](CCCNC(=N)N)NC(=O)[C@H](CCCNC(=N)N)NC(=O)[C@H](CCCNC(=N)N)NC(=O)[C@H](CCC(N)=O)NC(=O)[C@H](CCCNC(=N)N)NC(=O)[C@H](CCCNC(=N)N)NC(=O)[C@H](CCCCN)NC(=O)[C@H](CCCCN)NC(=O)[C@H](CCCNC(=N)N)NC(=O)CNC(=O)[C@H](Cc1ccc(O)cc1)NC(=O)CCCC[C@@H]1SC[C@@H]2NC(=O)N[C@@H]21)C(=O)NCC(=O)N[C@@H](CCC(=O)O)C(=O)N[C@@H](CC(C)C)C(=O)N[C@@H](CCC(N)=O)C(=O)N[C@@H](CC(C)C)C(=O)N[C@@H](CO)C(=O)N[C@H](C(=O)N[C@@H](C)C(=O)O)[C@@H](C)CC` [Tat-hCLCA1] (HELM PEPTIDE1{[O=C1N[C@H]2[C@H](CS[C@H]2CCCCC(=O)[*:2])N1].Y.G.R.K.K.R.R.Q.R.R.R.I.G.E.L.Q.L.S.I.A}$$$$V2.0), the results for the EC50 on GORASP1 d1 and on KIAA1284 were 120 nM and 74 nM, respectively.

B1: Tat-hCLCA1 peptide (11 residues of Tat coupled to the C-terminal 9 amino acids of hCLCA1), biotinylated (peptide)
peptide: Biotin-YGRKKRRQRRRIGELQLSIA
notes: Synthetic peptide, HPLC purified; pre-mixed with HRP-streptavidin in the modified G assay; also called Tat-hCLCA1 (SIA)
For the molecule B1, the EC50 amounted to 3.1 µM in assay [1], 120 nM in assay [2], 1100 nM in assay [3] and 74 nM in assay [4].
